Reference: publication PMC4117942 (Genes & Development, 2014)

B1: D. melanogaster Rhino chromodomain (19–85) (domain or fragment)
chain: DHVEEYVVEKILGKRFVNGRPQVLVKWSGFPNENNTWEPLENVGNCMKLVSDFESEVFRLHRKAAAK

Key:
[1] = molecular target: Rhino chromodomain (23–85) (D. melanogaster) (UniProt Q7JXA8); experiment: ITC
[2] = molecular target: B1; experiment: crystal structure
crystal structure = molecular target: the molecule itself; experiment: crystal structure

| Molecule | Kd [1] | also measured |
| --- | --- | --- |
| H3(1–15)K9me2 peptide (from UniProt P02299 2-16) | 28.4 µM | – |
| H3(1–15)K9me3 peptide (from UniProt P02299 2-16) | 21.8 µM | – |
| ARTKQTARKSTGGKA (trimethyl-lysine at 9 (K9me3)) [H3(1–15)K9me3 peptide] | – | binding result [2]: binds |
| B1 | – | binding result (crystal structure): binds |
